Experimental data reported in patent publication US12295987B2, “Method of using a GIP/GLP1 co-agonist for diabetes” (Eli Lilly and Company, priority 2018, dated 2025).

target: T1, human gastric inhibitory peptide receptor (hGIPR) (Homo sapiens, UniProt P48546); assay: cAMP pharmacological functional assay in presence of 0.1% casein, hGIPR; type: cell-based; conditions: ratio of hGIPR to hGLP1R cAMP EC50 ratios
T1 construct: expressed in transfected cells; host or cells: HEK293
T1 sequence (P48546 22-466): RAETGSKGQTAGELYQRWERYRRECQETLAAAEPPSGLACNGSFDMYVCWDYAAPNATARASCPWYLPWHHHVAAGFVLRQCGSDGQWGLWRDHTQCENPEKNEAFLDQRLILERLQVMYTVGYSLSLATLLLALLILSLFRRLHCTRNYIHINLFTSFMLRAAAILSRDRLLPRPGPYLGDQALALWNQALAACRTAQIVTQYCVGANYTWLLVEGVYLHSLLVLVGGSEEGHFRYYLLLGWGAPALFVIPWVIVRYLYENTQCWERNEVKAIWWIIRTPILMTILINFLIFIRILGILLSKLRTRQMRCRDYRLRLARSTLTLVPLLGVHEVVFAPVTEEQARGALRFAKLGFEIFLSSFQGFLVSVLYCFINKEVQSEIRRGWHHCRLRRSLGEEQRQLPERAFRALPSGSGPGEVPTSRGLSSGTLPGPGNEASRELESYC

| Substance | [hGIPR/hGLP1R] EC50 Ratio |
| --- | --- |
| Y-Aib-EGT-αMeF(2F)-TSDYSILLD-Orn-K((2-[2-(2-Amino-ethoxy)-ethoxy]-acetyl)2-(γGlu)-CO—(CH2)16—CO2H)AQ-Aib-EFI-(D-Glu)-YLIEGGPSSGAPPPS-NH2 (YXEGTXTSDYSILLDXKAQXEFIXYLIEGGPSSGAPPPS; Aib, Orn, αMeF(2F), lipidated Lys, D-Glu, amide; (2)..(2) Xaa at position 2 is Aib; (6)..(6) Xaa at position 6 is alpha-methyl-Phe(2F); (16)..(16) Xaa at position 16 is Orn; MOD_RES (17)..(17) Lys at position 17 is chemically modified by conjugation of the epsilon-amino group of the Lys side chain with (2-[2-(2-amino-ethoxy)-ethoxy]-acetyl)2-(gamma-Glu)-CO-(CH2)16- CO2H; (20)..(20) Xaa at position 20 is Aib; (24)..(24) Xaa at position 24 is D-Gl) [Peptide 248] | 6.35 |
| Y-Aib-EGT-αMeF(2F)-TSDYSILLDEK((2-[2-(2-Amino-ethoxy)-ethoxy]-acetyl)2-(γGlu)-CO—(CH2)18—CO2H)AQ-Aib-EFI-(D-Glu)-YLIEGGPSSGAPPPS-NH2 (YXEGTXTSDYSILLDEKAQXEFIXYLIEGGPSSGAPPPS; Aib, αMeF(2F), D-Glu; lipidated K; amide; (2)..(2) Xaa at position 2 is Aib; (6)..(6) Xaa at position 6 is alpha-methyl-Phe(2F); MOD_RES (17)..(17) Lys at position 17 is chemically modified by conjugation of the epsilon-amino group of the Lys side chain with (2-[2-(2-amino-ethoxy)-ethoxy]-acetyl)2-(gamma-Glu)-CO-(CH2)18- CO2H; (20)..(20) Xaa at position 20 is Aib; (24)..(24) Xaa at position 24 is D-Glu; MOD_RES (39)..(39) Ser at position) [Peptide 226] | 3.42 |
| Y-Aib-EGT-αMeF-TSDHSILLDKK((2-[2-(2-Amino-ethoxy)-ethoxy]-acetyl)2-(γGlu)-CO—(CH2)18—CO2H)AQ-Aib-AFIEYLIEGGPSSGAPPPS-NH2 (YXEGTXTSDHSILLDKKAQXAFIEYLIEGGPSSGAPPPS; Aib, αMeF; acylated lysine C20 diacid; amide; (2)..(2) Xaa at position 2 is Aib; (6)..(6) Xaa at position 6 is alpha-methyl-Phe; MOD_RES (17)..(17) Lys at position 17 is chemically modified by conjugation of the epsilon-amino group of the Lys side chain with (2-[2-(2-amino-ethoxy)-ethoxy]-acetyl)2-(gamma-Glu)-CO-(CH2)18- CO2H; (20)..(20) Xaa at position 20 is Aib; MOD_RES (39)..(39) Ser at position 39 is amidated) [Peptide 128] | 3.51 |
| Y-Aib-EGT-αMeF-TSDLSILLDKK((2-[2-(2-Amino-ethoxy)-ethoxy]-acetyl)2-(γGlu)-CO—(CH2)18—CO2H)AQ-Aib-AFIEYLIEGGPSSGAPPPS-NH2 (YXEGTXTSDLSILLDKKAQXAFIEYLIEGGPSSGAPPPS; Aib, αMeF; acylated lysine C20 diacid; amide; (2)..(2) Xaa at position 2 is Aib; (6)..(6) Xaa at position 6 is alpha-methyl-Phe; MOD_RES (17)..(17) Lys at position 17 is chemically modified by conjugation of the epsilon-amino group of the Lys side chain with (2-[2-(2-amino-ethoxy)-ethoxy]-acetyl)2-(gamma-Glu)-CO-(CH2)18- CO2H; (20)..(20) Xaa at position 20 is Aib; MOD_RES (39)..(39) Ser at position 39 is amidated) [Peptide 129] | 3.46 |
| Y-Aib-EGT-αMeF-TSDYSI-Aib-LDEK((2-[2-(2-Amino-ethoxy)-ethoxy]-acetyl)2-(γGlu)-CO—(CH2)18—CO2H)AQ-Aib-EFI-(D-Glu)-YLIEGGPSSGAPPPS-NH2 (YXEGTXTSDYSIXLDEKAQXEFIXYLIEGGPSSGAPPPS; Aib, αMeF, D-Glu; lipidated K; amide; (2)..(2) Xaa at position 2 is Aib; (6)..(6) Xaa at position 6 is alpha-methyl-Phe; (13)..(13) Xaa at position 13 is Aib; MOD_RES (17)..(17) Lys at position 17 is chemically modified by conjugation of the epsilon-amino group of the Lys side chain with (2-[2-(2-amino-ethoxy)-ethoxy]-acetyl)2-(gamma-Glu)-CO-(CH2)18- CO2H; (20)..(20) Xaa at position 20 is Aib; (24)..(24) Xaa at position 24 is D-Glu; M) [Peptide 225] | 3.80 |
| Y-Aib-EGT-αMeF-TSDYSI-αMeL-LDEK((2-[2-(2-Amino-ethoxy)-ethoxy]-acetyl)2-(γGlu)-CO—(CH2)16—CO2H)AQ-Aib-EFI-(D-Glu)-YLIEGGPSSGAPPPS-NH2 (YXEGTXTSDYSIXLDEKAQXEFIXYLIEGGPSSGAPPPS; Aib, αMeF, αMeL, D-Glu; lipidated K; amide; (2)..(2) Xaa at position 2 is Aib; (6)..(6) Xaa at position 6 is alpha-methyl-Phe; (13)..(13) Xaa at position 13 is alpha-methyl-Leu; MOD_RES (17)..(17) Lys at position 17 is chemically modified by conjugation of the epsilon-amino group of the Lys side chain with (2-[2-(2-amino-ethoxy)-ethoxy]-acetyl)2-(gamma-Glu)-CO-(CH2)16- CO2H; (20)..(20) Xaa at position 20 is Aib; (24)..(24) Xaa at position 2) [Peptide 213] | 5.58 |
| Y-Aib-EGT-αMeF-TSDYSI-αMeL-LDEK((2-[2-(2-Amino-ethoxy)-ethoxy]-acetyl)2-(γGlu)-CO—(CH2)18—CO2H)AQ-Aib-AFIEYLIEGGPSSGAPPPS-NH2 (YXEGTXTSDYSIXLDEKAQXAFIEYLIEGGPSSGAPPPS; Aib, αMeF, αMeL; acylated lysine C20 diacid; amide; (2)..(2) Xaa at position 2 is Aib; (6)..(6) Xaa at position 6 is alpha-methyl-Phe; (13)..(13) Xaa at position 13 is alpha-methyl-Leu; MOD_RES (17)..(17) Lys at position 17 is chemically modified by conjugation of the epsilon-amino group of the Lys side chain with (2-[2-(2-amino-ethoxy)-ethoxy]-acetyl)2-(gamma-Glu)-CO-(CH2)18- CO2H; (20)..(20) Xaa at position 20 is Aib; MOD_RES (39)..(39) Ser at po) [Peptide 115] | 2.49 |
| Y-Aib-EGT-αMeF-TSDYSI-αMeL-LDEK((2-[2-(2-Amino-ethoxy)-ethoxy]-acetyl)2-(γGlu)-CO—(CH2)18—CO2H)AQ-Aib-EFI-(D-Glu)-YLIEGGPSSGAPPPS-NH2 (YXEGTXTSDYSIXLDEKAQXEFIXYLIEGGPSSGAPPPS; Aib, αMeF, αMeL, D-Glu; lipidated K; amide; (2)..(2) Xaa at position 2 is Aib; (6)..(6) Xaa at position 6 is alpha-methyl-Phe; (13)..(13) Xaa at position 13 is alpha-methyl-Leu; MOD_RES (17)..(17) Lys at position 17 is chemically modified by conjugation of the epsilon-amino group of the Lys side chain with (2-[2-(2-amino-ethoxy)-ethoxy]-acetyl)2-(gamma-Glu)-CO-(CH2)18- CO2H; (20)..(20) Xaa at position 20 is Aib; (24)..(24) Xaa at position 2) [Peptide 227] | 4.42 |
| Y-Aib-EGT-αMeF-TSDYSI-αMeL-LDKK((2-[2-(2-Amino-ethoxy)-ethoxy]-acetyl)2-(γGlu)2-CO—(CH2)18—CO2H)AQ-Aib-AFIEYLIEGGPSSGAPPPS-NH2 (YXEGTXTSDYSIXLDKKAQXAFIEYLIEGGPSSGAPPPS; Aib, αMeF, αMeL; acylated lysine C20 diacid; amide; (2)..(2) Xaa at position 2 is Aib; (6)..(6) Xaa at position 6 is alpha-methyl-Phe; (13)..(13) Xaa at position 13 is alpha-methyl-Leu; MOD_RES (17)..(17) Lys at position 17 is chemically modified by conjugation of the epsilon-amino group of the Lys side chain with (2-[2-(2-amino-ethoxy)-ethoxy]-acetyl)2-(gamma-Glu)2-CO-(CH2)18- CO2H; (20)..(20) Xaa at position 20 is Aib; MOD_RES (39)..(39) Ser at p) [Peptide 125] | 2.89 |
